Measured values: publication PMC9105384, “Ethyl Gallate Dual-Targeting PTPN6 and PPARγ Shows Anti-Diabetic and Anti-Obese Effects” (International Journal of Molecular Sciences, 2022)

System: T1, Cc1cc(=O)oc2c(F)c(OP(=O)(O)O)c(F)cc12
T1 construct: Full-length human PTPN6 with an N-terminal hexahistidine (His6) tag
Test: Michaelis-Menten kinetics, fluorescence (Km)
Format: biochemical, Homo sapiens

In the case of PTPN6 (Homo sapiens), the Km is reported as 86.26 µM.
